[ ]: non-standard residue; d: D form.
Columns and labels:
[1] = target: integrin αvβ3 (UniProt P06756); assay: SPR; Biacore X100, CM5 chip, integrin αvβ3 amine-coupled (~4200 RU), single cycle kinetics; running buffer Tris-HCl 20 mM, NaCl 150 mM, P20 0.05%, MgCl2 1 mM, pH 7.4; kinetic fit, steady state fit for fibronectin
[2] = target: integrin αvβ3 (UniProt P06756); assay: SPR; Biacore X100, CM5 chip, integrin αvβ3 amine-coupled (~4200 RU), single cycle kinetics; running buffer Tris-HCl 20 mM, NaCl 150 mM, P20 0.05%, MgCl2 1 mM and MnCl2 1 mM, pH 7.4; kinetic fit, steady state fit for fibronectin
[3] = target: integrin αvβ3 (UniProt P06756); assay: as above; remark: listed apart in the source
[4] = target: integrin αvβ3 (UniProt P06756); assay: SPR; Biacore X100, CM5 chip, integrin αvβ3 amine-coupled (~4200 RU), single cycle kinetics; running buffer Tris-HCl 20 mM, NaCl 150 mM, P20 0.05%, MgCl2 1 mM, pH 7.4; kinetic fit, steady state fit for fibronectin; remark: listed apart in the source
[5] = target: T1, integrin αvβ3 (UniProt P06756 31-1048; P05106 27-788); assay: SPR; Mg2+
T1 chain 1: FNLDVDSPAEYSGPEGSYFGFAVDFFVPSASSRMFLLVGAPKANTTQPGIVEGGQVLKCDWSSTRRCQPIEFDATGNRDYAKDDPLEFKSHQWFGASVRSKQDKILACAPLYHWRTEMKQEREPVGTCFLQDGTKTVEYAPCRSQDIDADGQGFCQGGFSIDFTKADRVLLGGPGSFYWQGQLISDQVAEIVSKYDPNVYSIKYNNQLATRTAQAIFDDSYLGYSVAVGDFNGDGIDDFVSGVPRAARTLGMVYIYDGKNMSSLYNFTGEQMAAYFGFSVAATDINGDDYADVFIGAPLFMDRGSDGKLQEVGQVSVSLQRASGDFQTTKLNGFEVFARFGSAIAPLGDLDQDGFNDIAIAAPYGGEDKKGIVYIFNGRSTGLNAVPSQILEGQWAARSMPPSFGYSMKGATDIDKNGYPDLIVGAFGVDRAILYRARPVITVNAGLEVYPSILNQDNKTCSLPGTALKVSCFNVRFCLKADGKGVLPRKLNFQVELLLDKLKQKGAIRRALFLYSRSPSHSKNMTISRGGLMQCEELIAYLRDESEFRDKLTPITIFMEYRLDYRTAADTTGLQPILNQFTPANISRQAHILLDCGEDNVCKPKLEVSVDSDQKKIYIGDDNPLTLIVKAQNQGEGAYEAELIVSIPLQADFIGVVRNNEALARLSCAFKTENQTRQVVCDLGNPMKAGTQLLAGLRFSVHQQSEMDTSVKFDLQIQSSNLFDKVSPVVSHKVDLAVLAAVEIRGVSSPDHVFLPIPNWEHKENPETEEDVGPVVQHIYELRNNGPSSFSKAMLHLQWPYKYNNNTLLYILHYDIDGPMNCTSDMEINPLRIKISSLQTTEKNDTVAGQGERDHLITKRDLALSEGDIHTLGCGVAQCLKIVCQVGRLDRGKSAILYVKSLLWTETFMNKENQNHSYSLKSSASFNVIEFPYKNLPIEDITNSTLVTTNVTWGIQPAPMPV
T1 chain 2: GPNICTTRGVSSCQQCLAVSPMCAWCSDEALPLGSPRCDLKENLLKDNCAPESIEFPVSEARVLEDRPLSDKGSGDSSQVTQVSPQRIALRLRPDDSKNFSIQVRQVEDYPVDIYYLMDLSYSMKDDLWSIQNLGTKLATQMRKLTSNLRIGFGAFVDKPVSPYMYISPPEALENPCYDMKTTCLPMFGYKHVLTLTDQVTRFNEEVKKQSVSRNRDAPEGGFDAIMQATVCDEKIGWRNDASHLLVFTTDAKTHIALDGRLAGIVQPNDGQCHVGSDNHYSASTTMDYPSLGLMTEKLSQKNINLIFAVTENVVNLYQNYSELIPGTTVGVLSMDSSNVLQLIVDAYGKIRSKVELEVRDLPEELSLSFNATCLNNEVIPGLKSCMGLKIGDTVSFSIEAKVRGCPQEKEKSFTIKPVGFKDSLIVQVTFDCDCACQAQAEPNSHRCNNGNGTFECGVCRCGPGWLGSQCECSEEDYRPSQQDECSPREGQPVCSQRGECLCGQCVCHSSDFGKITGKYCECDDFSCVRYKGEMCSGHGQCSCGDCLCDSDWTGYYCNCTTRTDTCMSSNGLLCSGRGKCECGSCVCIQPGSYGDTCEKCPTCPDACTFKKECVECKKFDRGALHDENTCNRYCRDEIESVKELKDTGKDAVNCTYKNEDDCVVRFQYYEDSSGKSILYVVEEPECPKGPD

[6] = target: T1, integrin αvβ3; assay: SPR; Mg2+ + Mn2+
[7] = target: T1, integrin αvβ3; assay: SPR; Mg2+
[8] = target: integrin αvβ3 (UniProt P06756 31-1048; P05106 27-788); assay: SPR; Biacore X100, single cycle kinetics, in the presence of Mg2+ and Mn2+; conditions: both partners purified
[9] = target: T1, integrin αvβ3; assay: SPR; Mg2+ + Mn2+

Chain of vitronectin (P04004 20-478): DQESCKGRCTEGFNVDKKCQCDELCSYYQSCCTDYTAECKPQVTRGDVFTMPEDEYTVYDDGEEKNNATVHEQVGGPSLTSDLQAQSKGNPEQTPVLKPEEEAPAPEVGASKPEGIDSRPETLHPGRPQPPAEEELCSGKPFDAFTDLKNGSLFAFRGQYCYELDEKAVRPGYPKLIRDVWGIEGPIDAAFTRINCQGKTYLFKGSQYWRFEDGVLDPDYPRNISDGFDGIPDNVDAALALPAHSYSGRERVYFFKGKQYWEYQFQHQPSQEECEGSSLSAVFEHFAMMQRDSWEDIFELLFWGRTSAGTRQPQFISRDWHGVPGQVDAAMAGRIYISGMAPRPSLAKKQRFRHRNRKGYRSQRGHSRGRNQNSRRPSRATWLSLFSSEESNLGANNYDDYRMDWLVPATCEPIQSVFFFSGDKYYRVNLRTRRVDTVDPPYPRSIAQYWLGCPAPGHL

Question: How did the Kd [1] turn out when “vitronectin (from UniProt P04004 20-478) (ligand)” was run?
Answer: 1.3 nM

Question: What about the koff [1] of the same molecule?
Answer: 0.00021 s⁻¹

Question: What about the kon [1] of the same molecule?
Answer: 32000 M⁻¹ s⁻¹

Question: What about the Kd [2] of the same molecule?
Answer: 24 nM

Question: And the koff [2]?
Answer: 0.00032 s⁻¹

Question: What about the kon [2] of the same molecule?
Answer: 13000 M⁻¹ s⁻¹

Question: Which Kd [3] does the source give for cyclo(RGD[dY]K) (also: dimer of two cyclic peptides on a Glu linker, NODAGA chelator with 68Ga) [[^68Ga]Ga-NODAGA-E[(cRGDyK)]2] here?
Answer: 0.00071 nM

Question: What about the koff [3] of the same molecule?
Answer: 2.5e-07 s⁻¹

Question: What about the kon [3] of the same molecule?
Answer: 350000 M⁻¹ s⁻¹

Question: And the Kd [4]?
Answer: 0.075 nM

Question: And the koff [4]?
Answer: 7e-05 s⁻¹

Question: What about the kon [4] of the same molecule?
Answer: 930000 M⁻¹ s⁻¹

Question: And the Kd [5]?
Answer: 0.075 nM

Question: And the koff [6]?
Answer: 2.5e-07 s⁻¹

Question: What about the koff [7] of the same molecule?
Answer: 7e-05 s⁻¹

Question: What about the “fold stronger binding than vitronectin” value [8] of the same molecule?
Answer: 1000 fold

Question: What about the Kd [9] of the same molecule?
Answer: 0.00071 nM
